The experiment has as its target T1, recombinant cynomolgus CCL2 (cynomolgus monkey, UniProt P61274 24-99).
T1 construct: also called cyCCL2; cynomolgus monkey CCL2
The experiment in a line: Gyrolab sandwich assay; detection reagent.

Protocol: A Gyrolab™ based method was used in this example. Recombinant cynomolgus CCL2 samples were prepared in assay buffer (PBS, 0.1% (v/v) Tween-20, 1% BSA) and analyzed on a Gyrolab Xplore. […] All reagents and samples were transferred to a 96-well PCR plate and loaded into the instrument together with a Gyrolab BioAffy 200 nL disc (Gyros Protein Technologies AB). A three-step assay protocol (200-3W-001) was selected. […] Each reagent reaches the column at the same time after a short spinning step is applied to the disc. The columns were washed with PBS with 0.05 Tween after each step and finally laser induced fluorescence values were recorded within the instrument. A non-linear 4-parameter curve-fitting function (Wiemer-Rodbard) was applied to the averaged raw data to obtain a calibration curve.

B1: humanized anti-CCL2 antibody 11K2 (CCL2-0002) (antibody, V domains shown)
VH: QVQLVQSGAEVKKPGSSVKVSCKASGLTISDTYMHWVRQAPGQGLEWMGRIDPANGNTKFDPKFQGRVTITADTSTSTAYMELSSLRSEDTAVYYCARGVFGFFDYWGQGTTVTVSS
VL: DIQMTQSPSSLSASVGDRVTITCKATEDIYNRLAWYQQKPGKAPKLLISGATSLETGVPSRFSGSGSGTDYTLTISSLQPEDFATYYCQQFWSAPYTFGGGTKVEIK
modifications: Used as a digoxigenin or Alexa 647 conjugate; conjugation sites not stated.
notes: Detection reagent; also called Humanized 11K2; 11K2-Dig
Take B1: the binding result is reported as “binds”.
